Like-named read-outs stand apart in the source and are kept apart here. Each block holds one binder with its values, some of them ahead of it.
T1: untagged Rec114 (S. cerevisiae, UniProt P32841 1-428)
T1 sequence: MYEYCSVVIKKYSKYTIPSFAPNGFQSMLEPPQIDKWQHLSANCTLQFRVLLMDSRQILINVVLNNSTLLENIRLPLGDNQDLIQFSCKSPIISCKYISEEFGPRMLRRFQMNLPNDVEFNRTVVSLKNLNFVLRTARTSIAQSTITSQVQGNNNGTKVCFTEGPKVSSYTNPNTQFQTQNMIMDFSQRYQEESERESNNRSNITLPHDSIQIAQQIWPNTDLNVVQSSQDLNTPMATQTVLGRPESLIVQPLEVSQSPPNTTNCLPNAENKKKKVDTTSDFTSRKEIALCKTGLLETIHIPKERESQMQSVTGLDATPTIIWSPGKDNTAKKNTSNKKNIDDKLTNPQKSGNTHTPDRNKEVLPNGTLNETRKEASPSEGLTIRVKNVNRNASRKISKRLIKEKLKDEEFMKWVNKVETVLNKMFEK

T2: Rec114(375-428) (S. cerevisiae, UniProt P32841 375-428)
T2 sequence: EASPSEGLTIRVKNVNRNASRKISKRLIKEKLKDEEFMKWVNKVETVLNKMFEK

B1: coiled-coil domain of Mer2 (residues 77-227) (domain or fragment)
chain: IKVLNENSKTLCKSLNKFNQLLEQDAATNGNVKTLIKDLASQIENQLDKVSTAMLSKGDEKKTKSDSSYRQVLVEEISRYNSKITRHVTNKQHETEKSMRCTQEMLFNVGSQLEDVHKVLLSLSKDMHSLQTRQTALEMAFREKADHAYDR
B2: MBPMei4 (natural protein)
chain: MSRGKLEDMEQKETSEVDWIICFALIQSRNPTLWKRALSRKKGDVEDVGALKSEKNLKINPRENSKHIYKWVAPFENGFLNNKSLFAHLEPIYNFLCQNKYKSFEDAVGLKELQSFSKDVSTADINNWFLPRYKILLKILSLKTKEIDFRGLSQVFQTLQILLVSHYSHRIDSDSSFKRTLIDVHVFNFIAKFLFNRILLKKNQNDPKWLQNFYDQGDGKHLCDKVDYKRLCSLHFTLIYSIINIQLIKIKTNQTFEPQILKYVSVLKLIEHILIIIESLIHVLIRFVSKHKLICINRKKAYCRVYLERELSLKKTYLKNFYSVISGVPEKELGGLLKILKIVILSLLETFESIEWQHLKPFLEKFPAHEISLQKKRKYIQAALLITAERNLIARFRLSRWFNETENI
B3: untagged Mei4 (natural protein)
chain: B2 chain
B4: untagged Mer2 (natural protein)
chain: MVARGRTDEISTDVSEANSEHSLMITETSSPFRSIFSHSGKVANAGALEESDKQILEWAGKLELESMELRENSDKLIKVLNENSKTLCKSLNKFNQLLEQDAATNGNVKTLIKDLASQIENQLDKVSTAMLSKGDEKKTKSDSSYRQVLVEEISRYNSKITRHVTNKQHETEKSMRCTQEMLFNVGSQLEDVHKVLLSLSKDMHSLQTRQTALEMAFREKADHAYDRPDVSLNGTTLLHDMDEAHDKQRKKSVPPPRMMVTRSMKRRRSSSPTLSTSQNHNSEDNDDASHRLKRAARTIIPWEELRPDTLESEL
B5: untagged wild-type Rec114(325-428) (domain or fragment)
chain: PGKDNTAKKNTSNKKNIDDKLTNPQKSGNTHTPDRNKEVLPNGTLNETRKEASPSEGLTIRVKNVNRNASRKISKRLIKEKLKDEEFMKWVNKVETVLNKMFEK
B6: HisFlagRec114 (natural protein)
chain: T1 sequence

Experiments:
[1] = target: the molecule itself; assay: SEC-MALS
[2] = target: B6; assay: SEC-MALS
[3] = target: T1, untagged Rec114; assay: SEC-MALS
[4] = target: the molecule itself; assay: SEC-MALS; remark: listed apart in the source
[5] = target: the molecule itself; assay: cross-linking
[6] = target: T2, Rec114(375-428); assay: SEC-MALS

Binder: B1
- stoichiometry N [1]: 4

Binder: B2
- stoichiometry N [2]: 2 Rec114 per Mei4

Binder: B3
- stoichiometry N [3]: 2 Rec114 per Mei4

Binder: B4
- stoichiometry N [4]: 4

Binder: B5
- stoichiometry N [1]: 2

Binder: B6
- binding result [5]: binds

- stoichiometry N [6]: 2 Rec114 per Mei4
Binder: MSRGKLEDMEQKETSEVDWIICFALIQSRNPTLWKRALSRKKG (domain or fragment) [Mei4(1-43)]

Reference: doi:10.1101/2020.02.21.960245 (bioRxiv, 2020)
